Test results taken from patent US20240228586.

Molecular target: M-L3-IL12 (masked mouse IL-12 whose linker contains 3 repeats of LSGRSDNH) (UniProt Q60837)
Sequence (Q60837 whole entry, looked up): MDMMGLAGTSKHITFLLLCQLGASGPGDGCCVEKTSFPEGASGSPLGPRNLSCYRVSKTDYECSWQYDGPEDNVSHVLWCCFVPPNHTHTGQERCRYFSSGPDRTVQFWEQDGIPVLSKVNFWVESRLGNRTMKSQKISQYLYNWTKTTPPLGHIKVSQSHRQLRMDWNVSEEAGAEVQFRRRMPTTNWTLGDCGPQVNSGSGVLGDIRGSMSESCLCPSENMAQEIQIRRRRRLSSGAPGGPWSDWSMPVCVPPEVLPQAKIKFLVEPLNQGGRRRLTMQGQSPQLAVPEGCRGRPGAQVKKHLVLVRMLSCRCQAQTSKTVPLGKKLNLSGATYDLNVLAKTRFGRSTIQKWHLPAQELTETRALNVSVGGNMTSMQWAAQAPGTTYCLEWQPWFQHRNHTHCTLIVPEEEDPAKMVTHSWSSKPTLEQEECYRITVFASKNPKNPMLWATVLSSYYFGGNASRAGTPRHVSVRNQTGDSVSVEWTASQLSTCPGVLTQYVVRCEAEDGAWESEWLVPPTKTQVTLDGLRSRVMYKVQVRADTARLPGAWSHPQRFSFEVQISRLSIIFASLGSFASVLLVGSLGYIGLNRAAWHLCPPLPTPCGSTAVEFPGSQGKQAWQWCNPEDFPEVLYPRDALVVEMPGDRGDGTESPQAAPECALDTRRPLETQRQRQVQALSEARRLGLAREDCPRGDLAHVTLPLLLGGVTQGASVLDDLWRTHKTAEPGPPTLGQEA

recombinant human urokinase plasminogen activator
in vitro cleavage, 30 min at 37° C., SDS-PAGE: Decrease of molecular weight from ˜105 kDa to ˜60 kDa indicates proteolytic cleavage of IL12Rβ1-VP-IL12 and IL12Rβ1-LS-IL12
